The test system of data set [1] is biotinylated Caspase 3 peptide substrate with end-labeled fluorescent dye Cy5.
Data set [2] relates to PNA-Caspase 3 dual-labeled peptide chimera: PNA-Linker-Cys His His His His His His Asp Glu Val Asp Ala Lys-(C18-spacer)-Cy3.

This note sets out measurements from patent publication US20040038217.

Regarding Caspase 3, the “percentage of the residual assay intensity ratio relative to the negative control” value in the data set on PNA-peptide chimera III is reported as 112.03%; with PNA-peptide chimera I, 53.48%; with PNA-peptide chimera II it was 82.35%. The “Cy5 signal intensity at 1000 ms integration of uncut substrate (Caspase 3 at 8 to 0 microgram/ml)” value in data set [1] is listed as “The Cy5 signal intensity at 1000 ms integration increased from about 2600 to 5200 units for a decreasing Caspase 3 concentration ranging from 8 to 0 microgram/ml”. The “fluorescent Cy3/Cy5 signal ratio (Caspase 3 at 0 to 4 ng/µl)” value in data set [2] is “the fluorescent Cy3/Cy5 signal ratio decreases from approximately 1 to 0.6”.
Caspase 6: the “percentage of the residual assay intensity ratio relative to the negative control” value with PNA-peptide chimera III was found to be 79.08%; in the data set on PNA-peptide chimera I, 91.80%; in the data set on PNA-peptide chimera II, 41.18%.
The corresponding values for Caspase 8 are 59.89%, 73.77% and 69.41%.
